Assay results as given in paper PMC12680535.

B1: NSUN2 (NOP2/Sun RNA methyltransferase family member 2), wild type, in PANC-1 cells [human (endogenous in PANC-1)] / STUB1 (STIP1 homology and U-box containing protein 1), in PANC-1 cells [human (endogenous in PANC-1)] (parent)
chain 1: MKGKEEKEGGARLGAGGGSPEKSPSAQELKEQGNRLFVGRKYPEAAACYGRAITRNPLVAVYYTNRALCYLKMQQHEQALADCRRALELDGQSVKAHFFLGQCQLEMESYDEAIANLQRAYSLAKEQRLNFGDDIPSALRIAKKKRWNSIEERRIHQESELHSYLSRLIAAERERELEECQRNHEGDEDDSHVRAQQACIEAKHDKYMADMDELFSQVDEKRKKRDIPDYLCGKISFELMREPCITPSGITYDRKDIEEHLQRVGHFDPVTRSPLTQEQLIPNLAMKEVIDAFISENGWVEDY
chain 2: MGRRSRGRRLQQQQRPEDAEDGAEGGGKRGEAGWEGGYPEIVKENKLFEHYYQELKIVPEGEWGQFMDALREPLPATLRITGYKSHAKEILHCLKNKYFKELEDLEVDGQKVEVPQPLSWYPEELAWHTNLSRKILRKSPHLEKFHQFLVSETESGNISRQEAVSMIPPLLLNVRPHHKILDMCAAPGSKTTQLIEMLHADMNVPFPEGFVIANDVDNKRCYLLVHQAKRLSSPCIMVVNHDASSIPRLQIDVDGRKEILFYDRILCDVPCSGDGTMRKNIDVWKKWTTLNSLQLHGLQLRIATRGAEQLAEGGRMVYSTCSLNPIEDEAVIASLLEKSEGALELADVSNELPGLKWMPGITQWKVMTKDGQWFTDWDAVPHSRHTQIRPTMFPPKDPEKLQAMHLERCLRILPHHQNTGGFFVAVLVKKSSMPWNKRQPKLQGKSAETRESTQLSPADLTEGKPTDPSKLESPSFTGTGDTEIAHATEDLENNGSKKDGVCGPPPSKKMKLFGFKEDPFVFIPEDDPLFPPIEKFYALDPSFPRMNLLTRTTEGKKRQLYMVSKELRNVLLNNSEKMKVINTGIKVWCRNNSGEEFDCAFRLAQEGIYTLYPFINSRIITVSMEDVKILLTQENPFFRKLSSETYSQAKDLAKGSIVLKYEPDSANPDALQCPIVLCGWRGKASIRTFVPKNERLHYLRMMGLEVLGEKKKEGVILTNESAASTGQPDNDVTEGQRAGEPNSPDAEEANSPDVTAGCDPAGVHPPR

Variants of: B1
Test: Co-IP (IP: anti-Flag) immunoblot, band quantification
Settings: with STUB1 (STIP1 homology and U-box containing protein 1), MG132 +, n = 3, parent: 1, read off a plot

| response (relative intensity) | Variant |
| --- | --- |
| 0.3 | chain 2 K692E |
| 2 | chain 2 K692R |
